In patent publication US20150079612A1:

How the values were obtained:
[1] = molecular target: Hemoglobin; assay: competitive ECL 5-FU assay, Bi-61C6 beads and TAG Plus 1-5C-5-FU-BSA, hemoglobin 10 mg/mL in plasma without 5-FU
[2] = molecular target: Hemoglobin; assay: competitive ECL 5-FU assay, Bi-61C6 beads and TAG Plus 1-5C-5-FU-BSA, hemoglobin 10 mg/mL in plasma with 75 ng/mL spiked 5-FU
[3] = molecular target: Hemoglobin; assay: competitive ECL 5-FU assay, Bi-61C6 beads and TAG Plus 1-5C-5-FU-BSA, hemoglobin 10 mg/mL in plasma with 1000 ng/mL spiked 5-FU

B1: monoclonal antibody 61C6 (antibody, mouse IgG2b, kappa, V domains shown)
VH: QIQLVQSGPELKKPGETVTISCKASGYTLTNYGMNWVKQAPGKGLKWMGWINTNSGEPTYVEEFKGRFAFSLETSVSTVYLQISDLKHEDTATYFCARWGPHFNAYGWFAYWGQGTLVTVSA
VL: YIQMTQTASSLSASLGDRVTISCRASQDIWNYLNWYQQKPDGTIKLLIYYKSRLHSGVPSRFSGSGSGIDFSLTISNLEQEDFATYFCQQGHTLPWTFGGGSKLEIKR
modifications: biotinylated on primary amines with EZ-Link Sulfo-NHS-LC-Biotin (positions not stated)
[1]
  % Cross-React: 0%
[2]
  % Cross-React: 0%
[3]
  % Cross-React: -0.1%
